{"source": "paper PMC5066087", "about": "“In Vitro Bioconversion of Pyruvate to n-Butanol with Minimized Cofactor Utilization” (Frontiers in Bioengineering and Biotechnology, 2016)", "proteins": {"B1": {"name": "ADH (ADH-HT) (Geobacillus stearothermophilus) (protein)", "chain": "MKAAVVEQFKEPLKIKEVEKPTISYGEVLVRIKACGVCHTDLHAAHGDWPVKPKLPLIPGHEGVGIVEEVGPGVTHLKVGDRVGIPWLYSACGHCDYCLSGQETLCEHQKNAGYSVDGGYAEYCRAAADYVVKIPDNLSFEEAAPIFCAGVTTYKALKVTGAKPGEWVAIYGIGGLGHVAVQYAKAMGLNVVAVDIGDEKLELAKELGADLVVNPLKEDAAKFMKEKVGGVHAAVVTAVSKPAFQSAYNSIRRGGACVLVGLPPEEMPIPIFDTVLNGIKIIGSIVGTRKDLQEALQFAAEGKVKTIIEVQPLEKINEVFDRMLKGQINGRVVLTLEDK", "notes": "codon-optimised synthetic gene in pET-22b (NdeI/XhoI), C-terminal His-tag, expressed in E. coli, IMAC purified"}}, "key": {"purified protein [1]": {"substrate": "CC=O", "assay": "purified protein", "assay_type": "biochemical, Geobacillus stearothermophilus", "settings": "0.3 mM NADH, 2.5 mM MgSO4, 100 mM HEPES pH 7, 50°C, acetaldehyde 0.01–0.14 mM"}, "purified protein [2]": {"substrate": "CCCC=O", "assay": "purified protein", "assay_type": "biochemical, Geobacillus stearothermophilus", "settings": "0.3 mM NADH, 2.5 mM MgSO4, 100 mM HEPES pH 7, 50°C, butyraldehyde 0.8–3 mM"}}, "data": [{"protein": "B1", "values": [{"measurement": "Km", "setting": "purified protein [1]", "value": "65 ± 5", "unit": "µM"}, {"measurement": "kcat", "setting": "purified protein [1]", "value": "141.44 ± 14.52", "unit": "s⁻¹"}, {"measurement": "Km", "setting": "purified protein [2]", "value": "1430 ± 160", "unit": "µM"}, {"measurement": "kcat", "setting": "purified protein [2]", "value": "49.16 ± 3.8", "unit": "s⁻¹"}]}]}
